From patent publication US20260226154A1 (CEPHALON, published 2026) come the findings set out here.

Positions count from the first letter of the chain named. Names may count otherwise.

Usually Kd stands for the concentration at which binding is half-saturated. Broadly, the koff is the rate constant with which the complex falls apart. Low readings indicate a long-lived complex, high ones a short-lived complex. As usually defined, the kon is the rate constant with which the complex forms. Read a low kon as slower complex formation.

T1: PACAP38 (human, not fully specified)
T1 peptide: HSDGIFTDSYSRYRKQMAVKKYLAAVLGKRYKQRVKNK

T2: VIP (human)
T2 construct: also called vasoactive intestinal peptide
T2 peptide: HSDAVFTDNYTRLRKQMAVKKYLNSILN

T3: PACAP27 (human, not fully specified)
T3 peptide: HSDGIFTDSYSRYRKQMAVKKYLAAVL

B1: 917B (antibody, V domains shown)
VH: EVQLVQSGAEVKKPGSSVKVSCKASGGTFSDSYMHWVRQAPGQGLEWMGLIYPIFADTRYAQKFQGRVTITADESTSTAYMELSSLRSEDTAVYYCAIDQDGSFAYWGQGTLVTVSS
VL: DIVMTQSPDSLAVSLGERATINCKSSQSLLDSDGKTYLNWLQQKPGQPPKRLIYLVSTRESGVPDRFSGSGSGTDFTLTISSLQAEDVAVYYCWQGTWFDLTFGGGTKVEIK
notes: Humanized anti-PACAP variant
B2: 605C (antibody, V domains shown)
VH: B1 VH
VL: B1 VL with S32A, L55W, V56A
B3: 608C (antibody, V domains shown)
VH: B1 VH with S32L
VL: DIVMTQSPDSLAVSLGERATINCKSSQSLLDSDGKTYLNWLQQKPGQPPKRLIYWASTRESGVPDRFSGSGSGTDFTLTISSLQAEDVAVYYCWQGTWFDLTFGGGTKVEIKR
B4: 627C (antibody, V domains shown)
VH: B1 VH with S32V
VL: B3 VL
B5: 609C (antibody, V domains shown)
VH: B1 VH with S32L
VL: B3 VL with S32A
B6: 524C (antibody, V domains shown)
VH: B1 VH with T58Q, G102A
VL: B1 VL
notes: LC S(27E), G29, L50, V51, K53T, L54R, D55E, H93W, P95D
B7: 604C (antibody, V domains shown)
VH: B1 VH
VL: B1 VL with L55W, V56A
B8: 519C (antibody, V domains shown)
VH: B1 VH with S32L
VL: B1 VL
notes: as for B6
B9: 919A (antibody, V domains shown)
VH: B1 VH with Q100Y
VL: B1 VL with W98H, D100P
notes: Humanized anti-PACAP variant

For one assay, the target named is T1, PACAP38. As to the kind of experiment: cell-based or functional assay.
As for B1, the “PACAP-38 IC50” value amounted to 0.19 nM.

Regarding B2, the “PACAP-38 IC50” value is 0.15 nM.

Consider B3, for which the “PACAP-38 IC50” value was found to be 0.7 nM.

As to B4, the “PACAP-38 IC50” value worked out at 0.4 nM.

In the case of B5, the “PACAP-38 IC50” value turned out to be 0.83 nM.

Take B6: the “PACAP-38 IC50” value was 0.36 nM.

As for B7, the “PACAP-38 IC50” value was 0.16 nM.

With B8, the “PACAP-38 IC50” value was 0.27 nM.

In the case of B9, the “PACAP-38 IC50” value was 1.3 nM.

A further assay deals with T1, PACAP38. Kind of assay: cell-based or functional assay. This is another data set of the same source.
Consider B1, for which the “IC50 (nM), PACAP-induced cAMP accumulation, CHO-K1 cells, cAMP-Glo” value (“IC50 (nM)” below) came out at 0.19 nM.

B3: the “IC50 (nM)” value came out at 0.7 nM.

In the case of B4, the “IC50 (nM)” value stood at 0.4 nM.

Regarding B5, the “IC50 (nM)” value is 0.83 nM.

The next assay deals with T2, VIP. As to the kind of experiment: SPR (Biacore S200), 37 C, captured antibody, steady state affinity. How it is done:
(§1) In brief, antibody and peptide interaction was determined on a Biacore S200 (GE Healthcare) by method previously described (Andreu and Gomes 2002). An anti-Human IgG Fc capture antibody was immobilized on a CM5 biosensor chip via standard amine coupling. Anti-PACAP antibodies were injected and captured to 200 to 400 response units (RU),). PACAP38, PACAP27 and VIP were diluted in HBS-EP+ buffer containing 0.1% w/v BSA (Bovostar, catalog number BSAS1.0) and 0.15 M NaCl (Sigma-Aldrich catalog number S7653), pH 7.4. Binding kinetics of antibodies were determined by injection of two-fold serial dilutions of PACAPs (12 nm to 0 nM) and VIP (1200 nM to 0 nM) in running buffer at 37° C. with a flow rate of 40 μL/min for 2 min followed by a dissociation for 10 minutes. For subsequent cycles, the chip was regenerated using 0.85% phosphoric acid. Data was analysed with the Biacore S200 Evaluation Software (ver 1.0). Association rate (kₐ) and dissociation rate (kd) constants were determined using a simple one-to-one Langmuir binding model and used to calculate the equilibrium dissociation constant (KD).
(§2) Due to very fast on-rate and off-rate with VIP, binding affinity at steady state was used.
(In general: In SPR one partner is held on a chip, and binding of the other changes the refractive index at the surface.)
Take B2: the Kd turned out to be 225 nM.

The target in another assay is T1, PACAP38. Kind of assay: SPR (Biacore), 37 C, antibody captured via anti-human Fc, peptide analyte. Here is the method: as §1
B1 had an equilibrium dissociation constant (Kd) of 0.00969 nM, a koff of 0.000122 s⁻¹ and a kon of 1.26e+07 M⁻¹ s⁻¹.

In the case of B2, the Kd turned out to be 0.017 nM, the koff amounted to 0.000566 s⁻¹ and the kon is 3.33e+07 M⁻¹ s⁻¹.

B3 had a Kd of 0.0284 nM, a koff of 0.00204 s⁻¹ and a kon of 7.19e+07 M⁻¹ s⁻¹.

In turn, B4 showed a Kd of 0.0376 nM, a koff of 0.000789 s⁻¹ and a kon of 2.1e+07 M⁻¹ s⁻¹.

In turn, B5 yielded a Kd of 0.0228 nM, a koff of 0.00118 s⁻¹ and an association rate constant (kon) of 5.17e+07 M⁻¹ s⁻¹.

Take B6: the Kd turned out to be 0.035 nM, the koff was determined as 0.000546 s⁻¹ and the kon was 1.56e+07 M⁻¹ s⁻¹.

B7: the Kd stood at 0.0197 nM, the koff was 0.000319 s⁻¹ and the kon came to 1.62e+07 M⁻¹ s⁻¹.

B8 showed a Kd of 0.0218 nM, a koff of 0.000483 s⁻¹ and a kon of 2.22e+07 M⁻¹ s⁻¹.

B9: the Kd worked out at 0.0866 nM, the koff was determined as 0.00584 s⁻¹ and the kon stood at 6.75e+07 M⁻¹ s⁻¹.

A further assay deals with T1, PACAP38. Kind of assay: SPR (Biacore S200), 37 C, captured antibody, peptide dilution series, 1:1 Langmuir fit. How it is done:
as §1, §2
B2 yielded a Kd of 0.0328 nM, a koff of 0.000565 s⁻¹ and a kon of 1.72e+07 M⁻¹ s⁻¹.

A further assay has as its target T3, PACAP27. The assay is described as above. Here is the method: as §1, §2
B2: the Kd came to 0.154 nM, the koff came to 0.00101 s⁻¹ and the kon stood at 6.58e+06 M⁻¹ s⁻¹.

The next assay concerns the target T1, PACAP38. Kind of assay: SPR (Biacore S200) off-rate ranking, antibody captured from supernatant, single injection of 33.3 nM PACAP38. How it is done:
as §1, with “Binding kinetics of antibodies were determined by injection of two-fold serial dilutions of PACAPs (12 nm to 0 nM) and VIP (1200 nM to 0 nM) in running buffer at 37° C. with a flow rate of 40 μL/min for 2 min followed by a dissociation for 10 minutes.” left out
In turn, B2 showed a Kd of 0.017 nM, a koff of 0.000566 s⁻¹ and a kon of 3.33e+07 M⁻¹ s⁻¹.

B3 returned a Kd of 0.0284 nM, a koff of 0.00204 s⁻¹ and a kon of 7.19e+07 M⁻¹ s⁻¹.

As to B4, the Kd is 0.0376 nM, the koff stood at 0.000789 s⁻¹ and the kon was determined as 2.1e+07 M⁻¹ s⁻¹.

In turn, B5 registered a Kd of 0.0228 nM, a koff of 0.00118 s⁻¹ and a kon of 5.17e+07 M⁻¹ s⁻¹.

Take B7: the affinity, expressed as Kd, was 0.0197 nM; the koff amounted to 0.000319 s⁻¹; the kon was determined as 1.62e+07 M⁻¹ s⁻¹.
